This note sets out measurements from a protein production outcome set (Wang et al. 2014).

This data set can be described thus: label from the status in PepcDB records.
Turning to “MNNRGAVTDMISQLPEPLILQILGSLPTKVAITTSVLSKQWQSHWKMMPKLEFDSFLRRLDLENVTKCLLSHKAPVLQTFSLKVRLDRRNNAVDIGCLIGIAMTRNVRKLVLEVYFHRGTFTFPRSLYHCETLETLELILNVVMDVPPSVYLKSLKTLYLLAVDFKDDESVINLLSGCPNLQDLVMRRNSSSNVKTFTIAVPSLQRLAIHNGSGTPQHCGYTINTPSLKYLKLEGSKAFESFMVENVSELIEVNITDVSEIIDEKLRVFLTSVTRLSLALSPSVFTFPTGIIFNQLVYLEICTNKTSWWKLLPLMLHSSPKLQVLKLIDDTDGMNYVEASGEWNQPKNVPECLHHLEKFIWEGYKWKREEIEVAKYILKNTNRLKRAIFSLKGISSEDRLVVVEDLKSVVMATTNSCQFQFI”, the protein production entry was “failed”.
The entry for “MKIAVVDGQGGGIGKAVVEKLRKELPEDTQIIALGTNALATTLMLKAGANEGASGENAIVFNAPKVDIIVGPIGIISANSMMGELTPLMAAAIAESPARKILIPLNRCNIEIAGVKNEPLPYYIEHAVEMVKKYVEGHIALEHHHHHH” is “not failed”; for “MEQNITLKDRSKLVISGVEHIYSFNDKRVELKTSVGEMVIEGENLDMSKLSIDENIISIDGTINSMVYAKPKKPQESFLKKVFR” it is “failed”.
In the case of “MSPIALNLLQSTPYQVGGSLAANHPSYSQREADRELLAQLRAGKFCYVFNCRQMGKSSLRVRAMHQLQQDGVVCVSIDITSLGTEADPQKWYNGIITQLYLGLPLAGKVALKPWLREREQLSPIQKLREFVETIILQTIGDRQIVIFIDEIDKVLSLPFSLDDFFSYIRFCYNQRADDHEYNRLSFALFGVATPSDLIDNKTQTPFNIGQAIALTGFTLTEALPLSAGLPVDEVSAREILGEILAWTGGQPFLTQKVCELVAEALQKGDLDCQSQTIATTIAQLIEEKIIRHWESNDEPVHFRTIGDRLLKDQARSGQLLGLYQEILHKGAIPADDSVEQTVLRLTGLVVKVKGQLRPYNPIYQAIFNAQWVSKELNKLRPYGTNLQAWINSNYQDSSRLLRGEALREALAWASSKNLSGVDYRYLNASQNQEQEASLAANQILTQANVKAKRMISFGIVVLMMSLGGSAIALSQAYFATLKQQRSQQGTELQRLGTSAQRQFTFDQIPGLVTALEAGNQLHHLVKADETLSQYPATSPLVSLQQILSQIAEKNVLTGHRDGVTSVAISSHKNLIASASRDGTVHLWTPQGEFLREFTGHTGSIYRVDFSPNGKIFATAGQDQTVKIWDLDGNLLQTLKGHQDSVYSVSFSPDGEILASTSRDRTVRLWHWRSGKTLAVLGGHTKSVDDAQFSPDGQTLVSVCRDGQIRLWDLDGNLIRQFGLPEVAFFGVNWHPNGNLLAVAADDGTVRLWTPQGEIKATLSGHDEFVTRVVFTPDGKQLFSSSSNGSVIHWSTSGKMLKKYQGYPEAIFGLALASNGALLAIGAENNLVKVWDMSPKSDLVNLNLPAVLGAVAENAKTNTIALAMENEPLILFNTKNRSRQFLSDASQNLDRLKFSADGQWLLGQRGRQWQLWQLQTKSQLLKTWRTDISRVYDVDLRTTPTSPQWAIAMATGSGEVQLWQGTKNNQTSGNQSQGVPIELNDPIVLALGNSIQRKEPIRSVSLHPTLPQLAAGDEQGNLTLWNFDGTLIRSIVAHGDRLNQLQYSPNGKYLLSAGREGTAKIWSVEGQLLHTLKSDPLPIDQIAISPDSQWIATAASDGMVRLWDQQGNLRGEFTSTSGSLLGLDFNRQGQWLLAVAQNGDLQSWPVTPEKERLRQLVEQGCDWLRDYLATEKQPAQTYSLEFCQPTGN”, the protein production result is “failed”.
The entry for “MGIEMSLKDIINSNRPSESRQLACALTFCGGFIDAYTYIQRGHTLSAGQTGNVIFFSSALADHNIPGMINRASTFIAFSLGLLLVGLFHKYVKSHYWRVFCLFPILVICIVVGFLPKSVPNYYIVPAIAFGLAVQNASFSKIEGMGYNNVFTTGNLKKSVVAWSAFFFGEDKSKYTAAVNYMMLVISFGLGAIVSALLQKIWVLKTIWIAVIFLAIINCIYIIAIRKHKKLDLSGKNDA” is “failed”.
“MTDGTTDGLNKAAVFICHCSGNISEHVDINTVKKTLKAEGFSVYDYEYLCSSQGQALIKKKISEGHVDRVVIGSCTPSKHGTLFKKCIQETGLNRAGLEIANLREQCAWVHPDREGATEKALSLLKAKLKRLENIEPLEDIKVDIAQQVLVIGGGIAGITAALNLADNGVPTFLVEKDSSIGGQMAKIGKIFSPDKLAEECAMCSLSPLMNEVAAHPRITLLTWTEVEKLSGSAGNFTVRLKKKPRYVKDNCIACGKCSRVCPVSVEDEFNCGYMDKKAISLRFSQSVPKVYFIDPDSCLRLKGENCGKCAEACKTGAIDFSQKEEIIELNVGAVVVATGFEEYDVSQKPQYGYGIFENVLTQMELARVLGINGPTKGELLRISDFSKASSDPAPSTCDSRCESSSDHPFEVETPERIVMIQCVGSRDEKEGGNRYCSRYCCMAALKHASLIKKRYPKTEITICYIDMRAFGFYENYYRAVQETGVNFVRGRPAEVIEKPDKSLVVRVEDTLSQKIKEIPADMVVLSAAMVPSPGTKKIASVLNLSQDESGFIKERHSKLKPVDCSLDGIFVCGTAQSPKDVTDTIAQAGLAAVRARAFITDSPKVLDNEIAAINQLLCTRCGECLKCPFDALSINENGRVVLDPLICTGCGYCTELCREGAVQIAGFTKSQLKAELEGVLEEGDVLGFVNSGISSLTCDNIGNSVLTYPSSVKLIKVPTCLIVDRDLVLHAFRHGASSVLFVEDPPDSPRAEVIYPLTVSHFEKLKEELGDSGKRIHFKKAYVPNIKGLAGTFTSLAREGEMIK”: the protein production entry is on record as “failed”.
On to “MAAGPEPPEWEPRWRKALRGKENKGSVEIMRKDLNDARDLHGQAESAAAVWKGHVMDRRKKALTDYKKLRAFFVEEEEHFLQEAEKDEGASEDDELADPADRFRSLLQAVSELEKKHRNLGLSMLLQ”, for which the protein production result is listed as “not failed”.
For the sequence “MADWLIGIIMGAVEGLTEFLPVSSTGHMILTGHLLGFDDERAKVFEVVIQLGSILAVVVIFWKRLWSLVGIGKVTDGPSLNLLHIIIGMIPAGVLGVLFHSAIKEVLFGPGPVVISLVAGGILMIVAEKFSKPSTARTLDEITYKQAFTIGMFQCLALWPGFSRSGSTISGGLLARVSHTAAAEYTFILAVPMMVAASGLDLIKSWDILSAADIPLFATGFITAFVVAMLAIVSFLKLLSRVKLTPFAYYRFILAAVFYFFIM”, the protein production result is recorded as “failed”.
With “SMSEHSAIVTWKRKDSEAFTDNQYSRAHTWEFDGGSKILASASPHVVPVPLSVEANVDPEEAFVAALSSCHMLVFLSIAAKQRYLVESYTDNAVGILGKNSKGKTSVTKVVLRPQVVFSGTSKPTLQQLEKMHHLAHENCFIANSVETEVVTEII” the entry was “not failed”.
With “MDVLIHLFVGLHIIGIAALLGGFLTQMKAMGRGTARFVPGMLHGALTMLVTGVALVGLNQADDHSVNTIKIGVKLALLIVILGLVYVKRDEEQVDKGLFGLVGLLTTANIFIAVLWT” the entry was “failed”; with “MKNRIWSAAMAAGLLVAAATSAQAEPVMQGRDAYGDWQSDRPGTVRLIRPQDLVKPGATRSVASFARVVPRPSDASPQVPPGFKIELFAEGLRAPRIVRVAPNGDVFVAETRAGTIRVLRAGEGGKVAANEVFASGLRQPFGVAFFPNGDNPQWVYVANTDSVVRFPYQAGDLKARSKAEKIVASLPHDGGHSTRDIVFTPDNKRMLVSVGSLSNVAEGMGTPPGGMDAWSKTQPLGAAWASETERATVLAFTPDGKERKIYATGIRNCVGLAIQSQTGLPWCSTNERDGLGDDLVPDYVTSVKEGAFYGWPWFYIGGNEDPRHAGARPDLKDRVTIPDVLIQPHSASLGMTFYEGTQFPSDYQGDAFAAEHGSWNRSKRTGYKVIRIRMKDGKPTGEYEDFVTGFVLSDTEVWGRPVGVAVAKDGALLISEDGNGTIWRVSHP”, “failed”.
Turning to “MIGWTLGQYFFIRYLKMTCYFLGGIFVLALLIDFTENSGRLSSLPRYTAKDAFLISVLRIPFIMQQLIPFIALFSAMAMLISLNRKSELVVTRSIGISAWQFLMPACFGAFLFGLFSILLVNPLAAWGFSQAERMMTEWRSKNNNVLTSLHNTRILWLTQRTHSGRTTIGAKSITDQGLSLIDATFVQYNDNATIKNWINSRKATLINGAWLLTDGTIYKIGHPPEKFSELQIQTTLKPEFLTERLVNPATIPFYQLPTKIMIARSFGYSANNFDMYLQSLIALPALLIAMTLIAAVVSLNFTRFGQSKILILGGVIAGFSLYVISILVQAFGNAGYIPPIIAAWTPVFIALFLGISFLLHKEDG”, the protein production entry is “failed”.
